Laboratory results reported in patent publication US12534533B2, “Anti-chemokine like receptor 1 humanized antibodies and their therapeutic applications” (OSE IMMUNOTHERAPEUTICS, priority 2019, dated 2026).

T1: Biot-C7 peptide (human ChemR23 peptide, SEQ ID No. 60) (Homo sapiens, UniProt Q99788)
T1 construct: purchased synpeptide; host or cells: chemical synthesis
T1 sequence (Q99788 275-307 limits assumed): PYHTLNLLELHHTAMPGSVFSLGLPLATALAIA


What was measured:
[1] = biological target: T1, Biot-C7 peptide (human ChemR23 peptide, SEQ ID No. 60); assay: activity ELISA assay, binding of biotinylated C7 peptide; conditions: compared to wild-type 2G1; FIG. 23, FIG. 33
From the text: FIG. 23. Binding recognition of C7 peptide by humanized anti-CMKLR1 derived from 2G1. Binding of C7biot in the supernatant of CHO cells transfected with different combinations of heavy and light chains (VHWT+VLWT: combination of SEQ ID No. 37 and SEQ ID No. 49; HCLC: combination of SEQ ID No. 42 and SEQ ID No.52; HDLC: combination of SEQ ID No. 43 and SEQ ID No.52; HCLD: combination of SEQ ID No. 42 and SEQ ID No.53; HDLD: combination of SEQ ID No. 43 and SEQ ID No.53).
FIG. 24. ED50 of anti-CMKLR1 derived from 2G1 antibody. 2G1 wt: HALA: combination of SEQ ID No. 41 and SEQ ID No. 50; combination of SEQ ID No. 37 and SEQ ID No. 49; HCLC: combination of SEQ ID No. 42 and SEQ ID No.52; HDLC: combination of SEQ ID No. 43 and SEQ ID No.52; HCLD: combination of SEQ ID No. 42 and SEQ ID No.53; HDLD: combination of SEQ ID No. 43 and SEQ ID No.53.
FIG. 33—Binding of purified antibodies on human ChemR23 peptide by ELISA assay (A), with ED50 concentration (ng/ml) (B). For activity ELISA assay, donkey anti-human IgG, Fc specific (Jackson Immunoresearch; USA; reference 709-005-098) was immobilized on plastic at 1.3 μg/ml in borate buffer (pH9) and purified antibody was added to measure binding in BSA1% buffer, compared to wild-type 2G1.
For activity ELISA assay, donkey anti-human IgG, Fc specific (Jackson Immunoresearch; USA; reference 709-005-098) was immobilized on plastic at 1.3 μg/ml in borate buffer (pH9) and purified antibody were added to measure binding in BSA1% buffer, compared to wild-type 2G1.
For activity ELISA assay, donkey anti-human IgG, Fc specific (Jackson Immunoresearch; USA; reference 709-005-098) was immobilized on plastic at 1.3 μg/ml in borate buffer (pH9) and purified antibody was added to measure binding in BSA1% buffer, compared to wild-type 2G1.

[2] = tested on: PMN from healthy volunteers; assay: Percentage of dead PMN (mortality of neutrophils) on coated antibodies; assay type: cell-based, human; conditions: coated Ab at 10 μg/mL, 24 h; FIG. 26, FIG. 36
Experimental: […] Mortality of PMN was analyzed by incubating PMN with specific markers of the mortality and viability and then counted by picture analysis.
(§1) FIG. 36—Increase of dead PMN neutrophils in vitro with anti-ChemR23 antibodies coated. PMN from healthy volunteers were incubated in culture medium with coated HEF-LDT52S, HEF-LEF and HDLD antibody variants at 10 μg/mL for 24 h and stained either with a dead/viability kit (LIVE/DEAD (Invitrogen)). The percentages of positive cells were obtained by analyzing the pictures with Fiji software. Isotype control was added as control.
PMN from healthy volunteers were incubated in culture medium with coated Ab at 10 μg/mL for 24 h or 5 h and stained either with a dead/viability kit (LIVE/DEAD (Invitrogen)) or a specific marker of reactive oxygen species (ROS) respectively. The percentages of positive cells were obtained by analyzing the pictures with ImageJ software.
as §1, with “PMN” for “FIG. 36—Increase of dead PMN neutrophils in vitro with anti-ChemR23 antibodies coated. PMN”

[3] = Stability assay (7 days at 4° C. or 37° C.; ELISA and gel filtration); assay type: physicochemical; conditions: after 7 days at 37° C.; gel filtration; FIG. 34B
Experimental: FIG. 34—A. Binding of purified antibodies incubated 7 days at 4° C. or 37° C. on human ChemR23 ELISA assay. B. SEC profile by gel filtration chromatography of purified antibodies incubated 7 days at 37° C. Each purified humanized anti-ChemR23 antibody (HALA, HDLD, HD-LDT52S, HEF-LDT52S, HEF-LEF) were incubated for 7 days at 4° C. or 37° C. After 7 days, the binding of purified antibodies was analyzed by ELISA assay and the aggregate formation was analyzed by gel filtration (Superdex 200 10/300GL, GeHealthcare).
Each purified humanized anti-ChemR23 antibody (HALA, HDLD, HD-LDT52S, HEF-LDT52S, HEF-LEF) were incubated for 7 days at 4° C. or 37° C. After 7 days, the binding of purified antibodies was analyzed by ELISA assay and the aggregate formation was analyzed by gel filtration (Superdex 200 10/300GL, GeHealthcare).

[4] = tested on: CCR7 expression at the surface of pro-inflammatory macrophages M1; assay: CCR7 expression on M1 macrophages with coated antibodies; assay type: cell-based, human; conditions: antibody coated on plate, 48 h, flow cytometry; vs isotype control; FIG. 25, FIG. 35
Experimental: FIG. 25. Inhibition of CCR7 expression on M1 macrophages cells in vitro with anti-ChemR23 antibodies coated. 2G1 and all humanized 2G1 variants (HALA, HCLC, HCLD, HDLC and HDLD) were immobilized on plate. Isotype control were added as controls. Two isotypes which prevent FcRγ binding, i.e., 2G1-N297A (2G1 wt mutated in N297A to reduce FcγR binding), and 2G4 (wt with isotype IgG4mutated in S228P to stabilise hinge region) were also added. Pro-inflammatory macrophages M1 were added on coated plate for 48 h, and CCR7 expression at the surface of the macrophages was measured by flow cytometry.
FIG. 35—Inhibition of CCR7 expression on M1 macrophages cells in vitro with anti-ChemR23 antibody coated. The humanized 2G1 variant HEF-LD-T52S was immobilized on plate. Isotype control were added as controls. Pro-inflammatory macrophages M1 were added on coated plate, and CCR7 expression at the surface of the macrophages was measured by flow cytometry.
MATERIAL AND METHODS. […]
RESULTS. […] Pro-inflammatory macrophages M1 were added on coated plate for 48 h, and CCR7 expression at the surface of the macrophages was measured by flow cytometry.
The humanized 2G1 variant HEF-LD-T52S was immobilized on plate. […] Pro-inflammatory macrophages M1 were added on coated plate for 48 h, and CCR7 expression at the surface of the macrophages was measured by flow cytometry. […]

| Molecule | binding activity to antigen-specific peptides (C7 peptide) [1] | mortality of PMN (percentage of dead PMN) [2] | percentage of aggregate [3] | expression of CCR7 at the surface of pro-inflammatory macrophages (M1) [4] |
| --- | --- | --- | --- | --- |
| HDLD: humanized 2G1 variant: combination of SEQ ID No. 43 and SEQ ID No. 53 (antibody, V domains shown) VH: EVQLVESGGGLVQPGGSLRLSCAASGFTFSSYAMSWVRQAPGKGLELVATINRYGGSTYYAASVKGRFTISRDNSKNTLYLQMNSLRAEDTAVYYCPKLIYYGNEGDSWGQGTLVTVSS VL: AIQLTQSPSSLSASVGDRVTITCRASQSVSFLHWYQQKPGKAPKRWIYDATKLTSGVPSRFSGSGSGTDFTLTISSLQPEDFATYYCQQWQSKPPLTFGGGTKVEIK | even better than the germline antibody HALA and the wild type antibody 2G1 | accelerate the death of PMN | did not change |  |
| HEF-LDT52S: humanized 2G1 variant optimized to reduce immunogenicity: HEF (SEQ ID NO: 91) with LD-T52S (SEQ ID No. 93) (antibody, V domains shown) VH: EVQLVESGGGLVQPGGSLRLSCAASGFTFSSYAMSWVRQAPGKGLELVSTISGSGGSTYYAASVKGRFTISRDNSKNTLYLQMNSLRAEDTAVYYCPKLIYYGNEGDSWGQGTLVTVSS VL: AIQLTQSPSSLSASVGDRVTITCRASQSVSFLHWYQQKPGKAPKRWIYDASKLTSGVPSRFSGSGSGTDFTLTISSLQPEDFATYYCQQWQSKPPLTFGGGTKVEIK | high binding activity | accelerate the death of PMN | did not change | able to decrease expression of CCR7 |
